Measurements published in patent publication US20050272633A1.
Each block holds one binder with its values, some of them ahead of it. Where no end group is shown, it is not given here.

Biological target: NIK624-947 (C-terminal domain of NIK) (human) (UniProt Q99558)
Experiment: yeast two-hybrid, against cγc 289-369 as reference

Chain of NIK624-947 (C-terminal domain of NIK) (human) (Q99558 624-947 limits assumed): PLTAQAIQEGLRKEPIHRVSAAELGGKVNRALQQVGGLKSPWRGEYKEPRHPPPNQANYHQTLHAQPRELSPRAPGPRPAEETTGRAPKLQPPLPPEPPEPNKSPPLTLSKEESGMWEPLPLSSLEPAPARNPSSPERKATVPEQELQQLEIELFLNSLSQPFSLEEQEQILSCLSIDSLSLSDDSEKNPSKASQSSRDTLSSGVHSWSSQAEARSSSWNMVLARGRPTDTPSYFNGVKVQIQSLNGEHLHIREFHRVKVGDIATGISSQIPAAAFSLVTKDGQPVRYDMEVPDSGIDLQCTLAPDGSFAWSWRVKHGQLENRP

reduction in affinity: 50%
B1: cγc 289-325 (44 aa deleted from the ICD) (receptor, not shown: large carriers)
chain: RIPTLKNLEDLVTEYHGNFSAWSGVSKGLAESLQPDY
modifications: also: fused to GAL4 DNA-binding domain (two-hybrid bait), letters not given here

reduction in affinity: 50%
B2: cγc 289-357 (12 aa deleted from the membrane distal domain) (receptor, not shown: large carriers)
chain: RIPTLKNLEDLVTEYHGNFSAWSGVSKGLAESLQPDYSERLCLVSEIPPKGGALGEGPGASPCNQHSPY
